B1: RNA-binding E3 ubiquitin-protein ligase MEX3C, residues 325 to 391; numbered along this chain, Q5U5Q3 (parent)
chain: GQTTVQVRVPYRVVGLVVGPKGATIKRIQQQTHTYIVTPSRDKEPVFEVTGMPENVDRAREEIEMHI

Variants of: B1
Experiment: abundance fitness (aPCA) (normalised: wild type 0, dead -1); higher = more abundant; growth selection in yeast, the domain comes from the species named
Details: Homo sapiens

Abundance fitness: each site, then its substitutions
I28: G -0.883; L -0.559; T -0.288; H -0.751; Q -0.576; R -0.419; A -0.695; M -0.639; P -0.376; V -0.496; C -0.874; W -1.2; F -0.467; E -0.952
Q30: F -0.773; K -0.016; E -0.022; M -0.377; T -0.183; L -0.505; S -0.435; R -0.126; W -0.566; C -0.805; A -0.01; H -0.23; G -0.609; D -0.053; P -0.899; V -0.536; Y -0.664
Q31: N -0.048; K 0.035; I -0.18; F -0.452; E 0.252; P -0.65; G -0.57; W -0.966; A -0.272; D -0.001; C -0.69; R 0.036; S -0.319; L -0.128; M 0.048; V -0.109; T -0.261
H33: R -0.165; G 0.081; T -0.744; P -0.845; Q 0.088; K 0.016; Y -0.396; C -0.426; M -0.213; N 0.171; E -0.267; L -0.582; F -0.438; W -1.15; D 0.184; A -0.182
V37: A -0.23; C -0.205
K26: V -0.747; R -0.126; W -0.722; Y -0.944; T -0.61; S -0.483
R27: L -0.665; G -0.591; T -0.38; N -0.59; D -0.656; V -0.577; W -0.241; F -0.755; A -0.37; P -0.834; E -0.512; M -0.346; S -0.465; K 0.111; C -0.832; Q -0.399; I -0.901
T32: Q -0.669; W -0.916; E -0.707; M -0.653; C -0.578; P -0.654; D -0.575; H -0.488; V -0.682; R -0.938; Y -0.777; L -0.734; A -0.712; I -0.944
Y35: D -0.283; G -0.511; T 0.307; H 0.164; C -0.132; F -0.02; L -0.046; P -0.773; E -0.041; I -0.069; N 0.1; V 0.129; R 0.2; W -0.135; A -0.044; K 0.284; Q 0.206; S 0.15; M -0.044
I36: G -0.586; R -0.715; M -0.885; F -0.941; A -0.555; S -0.435; V -0.471; P -0.736; T -0.899; W -0.736; E -1.04; K -0.729; N -0.21; Q -0.801
T34: Y -1.07; A -0.877; D -0.503; I -0.866; Q -1.01; G -0.828; M -0.788; F -0.969; L -0.689; C -0.423; S -0.802; P -0.867; N -0.791; K -0.34; W -0.947; R -0.641
Q29: M 0.205; E -0.241; K -0.81; R -0.549; P -0.765; F -0.882; S -0.179; I -0.736; V -0.746; D -0.34; G -0.308; T -0.619; A 0.106; C -0.392; W -0.629
